The target of the experiment is Human PCSK9 form a' (human). Description: SPR ProteOn XPR36, antibody captured on anti-human IgG, PCSK9 variant as analyte, 25 C, 1:1 model.

Here are results for one substance from patent EP2975059A1.

For orientation: pKd means the Kd on a negative log10 scale, so that one unit is a factor of ten. Higher therefore signals a low Kd. By koff is commonly meant the rate constant with which the complex falls apart. Read a low koff as a long-lived complex. By kon is commonly meant a measure of how fast the partners come together. A high value points to faster complex formation.

pKd: −log10 of the molar value.

Evolocumab (antibody): the pKd was 9.73, the koff worked out at 2.29e-05 s⁻¹ and the kon came out at 124000 M⁻¹ s⁻¹.
